Reference: the supplement of paper PMC9170038

Tested on: MS2 coat protein
Assay: apparent KD of MS2 coat protein; designed switch direction (-1 OFF switch, 1 ON switch): 1; higher = weaker reporter binding
In short: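 Apparent KD, taken as the median over clusters for each design, was obtained by curve-fitting normalised cluster fluorescence. Designed RNA switches had been transcribed on Illumina chips by stalled E. coli RNA polymerase and titrated with SNAP-549-labelled MS2 coat protein, doubling from 0.7 or 1.5 nM to 3 µM.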

[1] = input ligand: microRNA oligo, concentration not stated
[2] = Eterna round: R95, input ligand: FMN 200 uM
[3] = Eterna round: R95, input ligand: microRNA oligo, concentration not stated
[4] = Eterna round: R95, input ligand: none

Sequence	apparent KD of MS2 coat protein (input ligand: FMN 200 uM) [nM]	apparent KD of MS2 coat protein [1] [nM]	apparent KD of MS2 coat protein (input ligand: none) [nM]	apparent KD of MS2 coat protein [2] [nM]	apparent KD of MS2 coat protein [3] [nM]	apparent KD of MS2 coat protein [4] [nM]
ACAUGAGACUCAGGAUAUCAUGUACCUACAUGUGACAUGAGGAUCACCCAUGUGGUAAGUAUGACUGAGAAGGGAGAGAUAUGU [Equivalance 88 - Jieux - Same State NG 2] (Eterna round: R96, puzzle: Same State NG 2)	63.7	159	248			
ACAUGAGACUCAGGAUAUCUUGUACCUACAUGUGACAUGAGGAUCACCCAUGUGGUAAGUAUGACAGAGAAGGGAGAGAUAUGU [Equivalance 87 - Jieux - Same State NG 2] (Eterna round: R96, puzzle: Same State NG 2)	26.7	47.2	64.1			
ACAUGAGAGAAAGGAUAUCUUGUACCUACAUGUGACAUGAGGAUCACCCAUGUGGUAAGUAUGACGGAGAAGGUUCAGAUAUGU [Equivalance 72 - Jieux - Same State NG 2] (Eterna round: R96, puzzle: Same State NG 2)	77.1	125	154			
ACAUGAGAGAUAGGAUAUGUUGUACCUACAUGUGACAUGAGGAUCACCCAUGUGGUAAGUAUGAGGCAGAAGGAUCAGAUAUGU [Equivalence 41 - Jieux - Same State NG 2] (Eterna round: R96, puzzle: Same State NG 2)	29.2	68.1	88.1			
ACAUGAGAGUGAGGAUAUACUGUACCUACAUGUGACAUGAGGAUCACCCAUGUGGUAAGUAUGACGUAGAAGGCACAGAUAUGU [Equivalance 79 - Jieux - Same State NG 2] (Eterna round: R96, puzzle: Same State NG 2)	33.1	118	182			
ACAUGAGGAUCACCCAUGUAUGCUCAGGAAACUGUGCAUCGUGAGGAUAUGGAUCCUAAUUGGAUCCAGAAGGCAUGUAUUAUU [Fiskers NG3ss - 27] (Eterna round: R96, puzzle: Same State NG 3)	321	23.9	153			
ACAUGAGGAUCACCCAUGUCGGAUAAGGAAACGACCACGUGGGAGGAUAUUGUAACGCGUCUGUACGAGAAGGCCCAUUCCAGU [Eternabot solution 42] (Eterna round: R96, puzzle: Same State NG 3)	29.2	66.8	80.8			
ACCCGCGGGCCACAUGAGGAUCACCCAUGUGACCGGUGAUCCAAGGAUAUGUGUAGGGUAGAUGCACAGAAGGUGGCCAAAACU [Ainriqu] (Eterna round: R96, puzzle: Same State NG 3)	26.6	14.8	18.5			
ACCGAGAGGCUAGGAUAUUAGGGCAUUUGCAUAUGAGAAGGAGCCAGAUGGCCACAUGAGGAUCACCCAUGUCAACCCUGGACA [Eternabot solution 4] (Eterna round: R96, puzzle: Same State NG 1)	22.5	12.9	18.2			
ACGCAGCUAGGUGAGGAUAUCGGUGGUAAAACAUGAGGAUCACCCAUGUCCGAAGCUCGGACUUCCGAGAAGGCGCCCGGCUGCA [Velaberi] (Eterna round: R96, puzzle: Same State 2)	12.7	78.8	106			
ACGCAGCUAGGUGAGGAUAUCGGUGGUAAAACAUGAGGAUCACCCAUGUCCGAAGCUCGGACUUCCGAGAAGGCGCCCGGCUGCA [Velaberi] (puzzle: Same State 2)				13.9	64.2	96.2
ACUUAGUACAAUUUAGAUCUACAUGAGGAUCACCCAUGUACUGAGGAUAUCAGCUCGAUUAGAGCUGAGAAGGCAGAAGUACUU [SSNG3/8-A2] (Eterna round: R96, puzzle: Same State NG 3)	45.4	159	220			
AGAAGACAUGAGGAUCACCCAUGUACCUCAUAAGGAGAGAGCGAGGAUAUGUAGAGAGAGAGGGAGCAGAAGGUGUGGGAGGAA [Default title] (Eterna round: R96, puzzle: Same State NG 3)	283	192	262			
AGAAUACAUGAGGAUCACCCAUGUCAACGUAGUCGAGGAUAUGGGCAGCCGUGAGGCGUACUAGAAGGCGAAGAGA [Mat - Same State 1 - Mod of JL - D6] (puzzle: Same State 1)				99.8	437	280
AGAGAACAUGAGGAUCACCCAUGUAGGAUGGGCAUAGGAUAUAGAGGAAUGAGGGAGGAGCUAGAAGGAUGAUGGA [JR_SS1_Sub078] (puzzle: Same State 1)				110	192	145
AGAGCCGGCACUGAGGAUAUUCAUAUUAAAACAUGAGGAUCACCCAUGUAGGCCAGAAGGCCUUGGGAGAAGGCAGGUCGGCUCG [Mat - Same State 2 - Mod of UCT - D57] (puzzle: Same State 2)				23.5	244	350
AGAUAGUGUGGAAAGGAUAUACUGUUGAGGACAUGAGGAUCACCCAUGUGGUAGAGGAGGUAAGGGUAGAAGGUUCGGGAUUGGU [JR_SS@_Sub019] (puzzle: Same State 2)				32.6	34.5	47.1
AGAUCAUGACGAGGAUAUGCCACAUGAGGAUCACCCAUGUAUGUGGUAGGACGCGUACGUCCAAAGCAGAAGGCGUCGUGGUCA [JL SSNG2 1.01] (Eterna round: R96, puzzle: Same State NG 2)	17.2	28.5	55.5			
AGAUCAUGACGAGGAUAUGGUACAUGAGGAUCACCCAUGUAUGUACCACGACGGAAACGUCGAAUCCAGAAGGCGUCAUGAUCA [Mat - Same State NG 2 - JL mod - D24] (Eterna round: R96, puzzle: Same State NG 2)	30.5	109	130			
AGAUCAUGACGAGGAUAUGGUACAUGAGGAUCACCCAUGUAUGUACUAUAACCCGAAUGAGGAAUCCAGAAGGCGUCGUGGUCA [JL SSNG2 1.13] (Eterna round: R96, puzzle: Same State NG 2)	24.4	56.3	93			
AGAUGUUAAUCAGGAUAUGGGCACAUGAGGAUCACCCAUGUAACGUAGAUACGAUGUGGUCAAGUCUAGAAGGGAUGGCUAACA [SameState NG2 #79] (Eterna round: R96, puzzle: Same State NG 2)	49.9	68.2	90.7			
AGAUGUUAAUUAGGAUAUGGACACAUGAGGAUCACCCAUGUAACGUAGAUACGAUGUGGUCAAGUCUAGAAGGGAUAGCUAACA [SameState NG2 #76] (Eterna round: R96, puzzle: Same State NG 2)	39.9	35.2	40.3			
AGCCGAGACACAGGAUAUAGAUGUCUACAUGAGGAUCACCCAUGUAGCAACACGUGGUAGUGAUUCUAGAAGGGUGCUCGGCGC [Omei SS(NG)2 Cv10] (Eterna round: R96, puzzle: Same State NG 2)	13.1	20.5	28.7			
AGCCUGAGUCGAGGAUAUUAUGGAUCCUCUAAUACAUGAGGAUCACCCAUGUAAUUAAUUAUACAUGAGAAGGCGACUCAGGCA [SSNG2/12-A3] (Eterna round: R96, puzzle: Same State NG 2)	98.7	69.4	25.5			
AGCGCGAUCUCGCAGGAUAUCCACAUUCCUACAUGAGGAUCACCCAUGUCGCUGCAGGAUAUUAGGGAGAAGGGUGAUGUCGCGC [Arxeinor] (puzzle: Same State 2)				21.4	32.6	34.8
AGCUAGUACCGAGGAUAUACGUACAUGAGGAUCACCCAUGUAUACAUGAUUAAAUGAGACUACAUGUAGAAGGCGGUACUAGCA [Mat - Same State NG 2 - JL mod - D48] (Eterna round: R96, puzzle: Same State NG 2)	15	27.1	48.1			
AGCUAUCGAAAACGAUAGCAAAAGCAUGUACAUGAGGAUCACCCAUGUCAUGUACAAGCUUUUUGCUCGUCUUAAAA [JL zipper 23] (Eterna round: R96, puzzle: Sensor for hsa-mir-208a)	919	14.3	1000			
AGCUAUCGAAAACGAUAGCAAAAGCAUGUACAUGAGGAUCACCCAUGUCAUGUAUAAGCUUUUUGCUCGUCUUAAAA [Zipper 23 - 12] (puzzle: Sensor for hsa-mir-208a)				42.7	9.86	34.4
AGCUAUCGAAAACGAUAGCAAAAGCAUGUACAUGAGGAUCACCCAUGUCAUGUGCAAGCUUUUUGCUCGUCUUAAAA [Zipper 23 - 4] (puzzle: Sensor for hsa-mir-208a)				163	10.7	208
AGCUAUUAAUCAGGAUAUGGUCACAUGAGGAUCACCCAUGUAUCGAUGAUAUGAUGUGGUCAAUACUAGAAGGGAUUGCUAACA [SameState NG2 #64] (Eterna round: R96, puzzle: Same State NG 2)	180	104	152			
